Test results reported in the supplement of paper PMC9170038.

System: K4 kissing-loop RNA reporter
Assay: apparent KD of K4 kissing-loop reporter; higher = weaker reporter binding
Details: Eterna round: R107; input ligand: tryptophan 2.4 mM
Method: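 RNA-MaP round R107: designed RNA switches with theophylline, tryptophan, arginine or FMN aptamers are transcribed on-chip within common flanks. They are titrated with a labelled K4 kissing-loop RNA reporter in RNA-MaP buffer (100 mM Tris pH 7.5, 80 mM KCl, 4 mM MgCl2), without ligand or with the indicated ligand. Median apparent KD per design.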
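Further: bound reporter read as fluorescence of individual clusters on recovered sequencing chips by microscopy, with normalized cluster intensities fitted with a binding model.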

Point of comparison: “GGUUUAUAGGAGGAUACCAGUACGGAUAAAGUACGUUAAUAGUAGAGUGAUGUUCUAAAGUACCCUUGGCAGCUUAGAUUAAGUU [ExTheophylB.J]”, “apparent KD of K4 kissing-loop reporter” value 64.4 nM. Against it:
- UGGACCUGACUCGAUAAGAGUCAAUGAGAUACCAGUGACGAAAGUCACCCUUGGCAGCUCACUGCCAGUGAUGUUGGUAGGUCCU [#SwitchBubble 3 #StaticStem] — 17-fold higher, 1070 nM
- GCGCGGGAGUGAUGUUCCAAGUGGUGUUAGCGAGGACCGGUACGGCCGCCACUCGUUACGGCCGGGCCGUAGGAUACACUGGCGC [Same State - Tryptophan A (Freestyle 17)] — 3.7-fold higher, 240 nM
- CAUACGCAUGGAGGAUAUGAGAUUACUCAUAUCAUUUAAUAUUCUCAGUGAUGUUGAGAUUUGGGCUCAGAAGGCCAUGUGUAUG [Ex FMN B 15] — 4.9-fold higher, 317 nM
- UGAUAGGACAGAAGGAGCGGAAGUGAUGUUUCCAAAAGGUAAGGUCGACAAAGUCGACCCUUCCAGGUAGGUCGCUGUCCUAUCU [ArgBX 11 #Palindromic #SwitchBubble #StaticStem] — within 1.5-fold, 82.4 nM
- AUAAACUUGCAGUGAUGUUGCAAGUGAGACUAGGAUAUCAGGAAGCUGAGAAGGAGUCAUCUCCUUCAAACAUCACUAUGAAGGA [whbob_SS_FMNA__2th178] — 4.5-fold higher, 292 nM
- AAAGGAGUGGAAGGAUAUCCUGGUGUGGGUGGUGUUAGUGAUGUUGGUGGUGCAGUGAUGUUGCGCGGAGAAGGUCCGGUAUUGG [BDazzled - #2 - Exc. FMN B] — 6.4-fold higher, 410 nM
- UGGAGUUGACGAAAAGUCAACUCCCGAGAAGGAGCGGACGAAAGUCCAGGUAGGUCGCUCGCUACCAGUGAUGUUGGUACUGAAA — 1.6-fold higher, 105 nM
- AACGGCCAGUCGGCCGCCACUCGAUGCAGUGAUGUUGCUAACUUUCUAAAAGAGUGAUGUUCAUGGAGGACCGGGACUAGUGUAA [#30 K4 Tryptophan B Exclusion] — 3.7-fold higher, 241 nM
- UAAUAUAAUCUGUCGUUUACAAUAUUUAGUCAGGAUAUCGUAUAUUCGAGAAGGGACACUAUCUAGUGAUGUUAGAUAUUUCGUU [JR_ExcFMNA_Sub015] — within 1.5-fold, 54.6 nM
- GCUCGUCAUGUCAGCGGUGGUACUGUCGAUACCAGUGCCGUAAGGCGCCCUUGGCAGCGAUGCGCUGGAGUGAUGUUCCAGCGUU [#2 Exclusion - Theophylline A Attempt #32 (HarryS)] — 1.8-fold higher, 119 nM
- UGUGUUGUUGUGAUGUUUGGUGUUGCAGGGCAGGAUAUCGUAGAGGCGAGAAGGGCUUUUGUGCGGUAUGAGUGAUGUUUGUAGG [rrcgsmullin] — 3.9-fold higher, 250 nM
- ACACUAUCGUCAUAGACGGUAGUGAACACACAGGAUAUGAGUGAUGUUAGAAGGGUGUAAGACUGUAUCGAAUAGAUACAGUCAA [FmnA 7 #K4BetweenAptamer #OpenEnded] — 3-fold higher, 190 nM
- AAACGUUGGUCUGAUACCAGCUGAUCGGAAACGAUCUUGCUGGAGUGAUGUUCCAGGAAAAGCCCUUGGCAGCAGACCGACGAAA [MAT - Same State Theophlline B - Mod of Eli - D25] — 14-fold higher, 894 nM
- CAACCCUGCUUUUUCGAGUUUUAGGGAUGACGAGGACCGGUACGGCCGCCACUCGACUACACUGUUCAGUGAUGUUGAACGGCGG [Teveza] — 4.1-fold higher, 267 nM
- UAUGAAUGUGGAGGAUAUUGAUUGAAUCUUGGUCUGGAGUGAUGUUCCGGGAAGCCUUGGAUUCAUCGAGAAGGCCAUGGAUAGU [#03 K4 FMN B Same State] — within 1.5-fold, 95.9 nM
- GUUCGGAUGCGGGAUACCAGCGUACCGAGCAAGCUUCGGGUAGUGAUGUUAUCUGAAUUACGCCCUUGGCAGCCCGCAUCCGGGC [clock_plus] — 4-fold higher, 256 nM
- AGUACAAUGGCGGCCGCCACUCAACAGCAGAUCAAAGAUCUGCUUCACUCAGUGAUGUUGAGUGAGAGGACCGGGCCUUUGUACA [Omei KL Tryp B SS B v4] — 3.4-fold higher, 216 nM
- UGACAUUGCUCAGAUACCAGACAAGAGGAUCACCCUUGUGCCAACGUACAAAUAAUAAAUGUCCCUUGGCAGCUGAGCAAUGUCU [TheoBX 15] — within 1.5-fold, 47.5 nM
- GUCCAACCUGGAGGAUAUCUGCUGUCCAGUGAUGUUGGACACUUUAGUAAAGGCCGGGUAGCCCGCAGAGAAGGCCGGAGUUGCC [Arceer] — 5.1-fold higher, 327 nM
- UAGUAGCUCUCGGCCGCCACUCCUCAGUGAUGUUGAGAUAUUAAGAGCCAAUUGGCUCAUAUAAAGAGGACCGGGAGAGCUACAU [AK4.2 SS Tryptophan B] — 2-fold higher, 126 nM
- UGAUAGGACAGAAGGAGCGGCAGUGAUGUUGCCAAAAGGGUAAGGUGUCAAAAGACACCCUGCCAGGUAGGUCGCUGUCCUAUCU — 2.1-fold higher, 134 nM
- GGGAGUAGUGCGGCCGCCACUGAGAAAGAAGAAGAAUAUAGUGAUGUUAUGUAGGAAAGGAAGAACAGGACCGGGCAUUAGAUUU [SSTRyptB.G] — 4.2-fold higher, 270 nM
- UGAUAGGACAGAAGGAGCGAGGAGUGAUGUUCCUCAAAAGGUCUAGCAAAGCUAGACCCUCCUCAGGUAGGUCGCUGUCCUAUCU [ArgBX 1 #Palindromic #SwitchBubble #StaticStem] — 2.5-fold higher, 158 nM
- GCCGUAGAUGGAAGGAGCGUGUCAAAGUGAUGUUUUGAUUAACUCCCUAAGGGAUAGAUGACACAGGUAGGUCGCCAUCUACGGC — within 1.5-fold, 63.3 nM
- AUUUAGACGAGUGAUGUUCGUGUUAUUACAGAGGAUAUGCGUAAUUGCAGAAGGCUGUAUUUAUAUAUGUUAUGUGGUUUUAAAA [whbob_Ex_FMNA__2th185] — within 1.5-fold, 63 nM
- AAACAUUGGUCUGAUACCAGCUGAUCGGAAACGAUCAUGCUGGAGUGAUGUUCCAGGAAAAGCCCUUGGCAGCAGACCGAUGAAA [MAT - Same State Theophlline B - Mod of Eli - D28] — 2.1-fold higher, 137 nM
